Experimental data reported in patent US8301398 (WALTER AND ELIZA HALL INSTITUTE OF MEDICAL RESEARCH, dated 2012).

B1: IR485 (residues 1-485 of the insulin receptor) with enterokinase cleavage site and c-myc epitope tag (receptor)
chain: HLYPGEVCPGMDIRNNLTRLHELENCSVIEGHLQILLMFKTRPEDFRDLSFPKLIMITDYLLLFRVYGLESLKDLFPNLTVIRGSRLFFNYALVIFEMVHLKELGLYNLMNITRGSVRIEKNNELCYLATIDWSRILDSVEDNHIVLNKDDNEECGDICPGTAKGKTNCPATVINGQFVERCWTHSHCQKVCPTICKSHGCTAEGLCCHSECLGNCSQPDDPTKCVACRNFYLDGRCVETCPPPYYHFQDWRCVNFSFCQDLHHKCKNSRRQGCHQYVIHNNKCIPECPSGYTMNSSNLLCTPCLGPCPKVCHLLEGEKTIDSVTSAQELRGCTVINGSLIINIRGGNNLAAELEANLGLIEEISGYLKIRRSYALVSLSFFRKLRLIRGETLEIGNYSFYALDNQNLRQLWDWSKHNLTTTQGKLFFHYNPKLCLSEIHKMEEVSGTKGRQERNDIALKTNGDKASCENELLKFSYIRTSFDKISDDDDKEQKLISEEDLN
notes: also called IR485/myc; soluble IR485
B2: anti-insulin receptor monoclonal antibody 83-7 (whole antibody) (antibody, V domains shown)
VH: QVQLKESGPGLVAPSQSLSITCTVSGFPLTAYGVNWVRQPPGKGLEWLGMIWGDGNTDYNSALKSRLSISKDNSKSQVFLKMNSLQTDDTARYYCARDPYGSKPMDYWGQGTSVTVSS
VL: DIVMSQSPSSLVVSVGEKVTMSCKSSQSLLYSSNQKNFLAWYQQKPGQSPKLLIYWASTRESGVPDRFTGSGSGTDFTLTISSVKAEDLAVYYCQQYFRYRTFGGGTKLEIKR
notes: also called Mab 83-7

What was measured:
[1] = biological target: the molecule itself; test: gel filtration on Superdex 200 HR; monomeric on non-reduced SDS-PAGE
Excerpt: Further purification was effected by gel filtration on Superdex 200 HR (Pharmacia, Sweden) in TBSA, monitored at 280 nm.

[2] = biological target: B1; test: sandwich ELISA, biotinylated 83-7 as developing antibody

Row | binding result [2] | Binder | binding result [1]
1 | – | B1 | binds
2 | binds | B2 | –
